Assay results published in doi:10.1101/2021.09.16.460643 (bioRxiv, 2021).
Values belong to the molecule of their own block, whether it stands above or below them.

How the values were obtained:
[1] = target: receiver domain of ARABIDOPSIS … KINASE 5 (AHK5RD), labelled with Alexa Fluor-488 (Arabidopsis thaliana) (UniProt Q3S4A7); test: MST
[2] = target: T1, ETR1 fragment comprising both HK and RD domain (ETR1HK-RD) (Arabidopsis thaliana, UniProt P49333 324-738); test: MST
T1 sequence (looked up): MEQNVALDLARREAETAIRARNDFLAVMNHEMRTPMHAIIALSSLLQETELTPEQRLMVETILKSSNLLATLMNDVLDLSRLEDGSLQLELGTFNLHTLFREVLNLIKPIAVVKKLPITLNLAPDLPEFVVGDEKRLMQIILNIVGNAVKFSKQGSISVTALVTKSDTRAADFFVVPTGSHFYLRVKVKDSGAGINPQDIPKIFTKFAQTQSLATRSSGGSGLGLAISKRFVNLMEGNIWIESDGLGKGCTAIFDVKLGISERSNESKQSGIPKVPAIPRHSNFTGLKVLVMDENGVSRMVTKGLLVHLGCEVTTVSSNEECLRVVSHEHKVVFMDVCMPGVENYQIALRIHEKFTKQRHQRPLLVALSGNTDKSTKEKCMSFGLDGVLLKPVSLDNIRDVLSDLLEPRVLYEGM

Kd [1]: 166 µM
Molecule: histidine kinase domain of ETHYLENE RESPONSE 1 (ETR1HK) (domain or fragment)

Kd [2]: 167 ± 50 µM
B1: receiver domain of ARABIDOPSIS … KINASE 5 (AHK5RD), labelled with Alexa Fluor-488 (domain or fragment, Arabidopsis thaliana)
chain: ETSKPKILLVEDNKINIMVAKSMMKQLGHTMDIANNGVEAITAINSSSYDLVLMDVCMPVLDGLKATRLIRSYEETGNWNAAIEAGVDISTSENEQVCMRPTNRLPIIAMTANTLAESSEECYANGMDSFISKPVTLQKLRECLQQYLH
modifications: Alexa Fluor-488 label (site not stated; printed as Alexa-Fluor 484 in the anisotropy methods)
